# Measured values as given in the supplement of paper PMC10065799, “High-throughput profiling of sequence recognition by tyrosine kinases and SH2 domains using bacterial peptide display” (eLife, 2023).
# Columns and labels:
# AncSZ = experiment: phosphorylation enrichment, bacterial display (enrichment ratio); higher = better substrate or ligand; peptides without Tyr show the background
# EPHB1 = EPHB1 (UniProt P54762); experiment: as above
# EPHB2 = EPHB2 (UniProt P29323); experiment: as above
# FGFR1 = FGFR1 (UniProt P11362); experiment: as above
# Sequence of FGFR1 (P11362 whole entry, looked up): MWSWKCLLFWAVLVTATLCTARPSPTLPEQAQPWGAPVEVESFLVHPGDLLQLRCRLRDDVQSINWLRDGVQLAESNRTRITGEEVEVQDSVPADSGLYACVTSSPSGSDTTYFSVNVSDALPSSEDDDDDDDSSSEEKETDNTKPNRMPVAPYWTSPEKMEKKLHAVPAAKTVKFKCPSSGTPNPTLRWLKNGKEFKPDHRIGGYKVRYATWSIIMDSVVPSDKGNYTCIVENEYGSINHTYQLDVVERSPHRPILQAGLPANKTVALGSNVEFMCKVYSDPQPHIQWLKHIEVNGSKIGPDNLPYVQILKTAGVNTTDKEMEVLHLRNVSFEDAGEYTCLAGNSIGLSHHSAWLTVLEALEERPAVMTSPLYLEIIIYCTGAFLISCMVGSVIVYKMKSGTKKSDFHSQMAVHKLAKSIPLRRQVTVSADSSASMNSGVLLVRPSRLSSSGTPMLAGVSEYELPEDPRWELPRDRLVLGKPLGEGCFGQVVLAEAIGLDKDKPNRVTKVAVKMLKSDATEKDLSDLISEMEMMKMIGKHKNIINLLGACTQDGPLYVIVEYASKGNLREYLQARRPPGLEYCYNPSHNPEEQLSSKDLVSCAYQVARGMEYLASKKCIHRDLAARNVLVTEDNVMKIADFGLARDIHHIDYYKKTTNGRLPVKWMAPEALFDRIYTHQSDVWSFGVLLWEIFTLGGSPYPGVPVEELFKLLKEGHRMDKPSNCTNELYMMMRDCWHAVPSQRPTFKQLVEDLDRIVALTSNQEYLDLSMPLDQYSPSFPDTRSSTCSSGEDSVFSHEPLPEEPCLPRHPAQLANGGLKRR
# FGFR3 = FGFR3 (UniProt P22607); experiment: as above
# Sequence of FGFR3 (P22607 whole entry, looked up): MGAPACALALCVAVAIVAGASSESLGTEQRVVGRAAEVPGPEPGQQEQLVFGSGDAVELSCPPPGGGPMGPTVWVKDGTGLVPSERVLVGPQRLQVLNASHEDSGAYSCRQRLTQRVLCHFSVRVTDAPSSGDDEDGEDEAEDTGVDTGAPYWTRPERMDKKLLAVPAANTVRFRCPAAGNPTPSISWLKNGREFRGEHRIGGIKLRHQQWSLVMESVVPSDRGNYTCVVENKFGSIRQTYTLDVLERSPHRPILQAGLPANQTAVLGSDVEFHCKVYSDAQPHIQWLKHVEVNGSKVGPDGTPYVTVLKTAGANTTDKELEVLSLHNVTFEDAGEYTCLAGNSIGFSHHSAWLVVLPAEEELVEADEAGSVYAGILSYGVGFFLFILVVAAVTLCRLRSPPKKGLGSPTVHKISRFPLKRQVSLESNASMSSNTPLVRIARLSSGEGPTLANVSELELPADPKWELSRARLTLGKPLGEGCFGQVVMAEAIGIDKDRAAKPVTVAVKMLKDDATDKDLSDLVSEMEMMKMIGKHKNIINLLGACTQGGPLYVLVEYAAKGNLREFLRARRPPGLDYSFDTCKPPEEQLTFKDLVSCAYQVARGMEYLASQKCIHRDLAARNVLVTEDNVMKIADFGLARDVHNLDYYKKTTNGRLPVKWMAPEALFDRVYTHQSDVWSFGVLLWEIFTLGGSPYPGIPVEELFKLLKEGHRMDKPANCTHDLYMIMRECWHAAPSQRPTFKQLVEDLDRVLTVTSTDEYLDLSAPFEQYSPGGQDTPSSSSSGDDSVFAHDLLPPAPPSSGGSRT
# Fer (mouse) = experiment: as above
# Fes = Fes (UniProt P07332); experiment: as above
# Fyn = Fyn (UniProt P06241); experiment: as above
# Hck = Hck (UniProt P08631); experiment: as above
# Sequence of Hck (P08631 whole entry, looked up): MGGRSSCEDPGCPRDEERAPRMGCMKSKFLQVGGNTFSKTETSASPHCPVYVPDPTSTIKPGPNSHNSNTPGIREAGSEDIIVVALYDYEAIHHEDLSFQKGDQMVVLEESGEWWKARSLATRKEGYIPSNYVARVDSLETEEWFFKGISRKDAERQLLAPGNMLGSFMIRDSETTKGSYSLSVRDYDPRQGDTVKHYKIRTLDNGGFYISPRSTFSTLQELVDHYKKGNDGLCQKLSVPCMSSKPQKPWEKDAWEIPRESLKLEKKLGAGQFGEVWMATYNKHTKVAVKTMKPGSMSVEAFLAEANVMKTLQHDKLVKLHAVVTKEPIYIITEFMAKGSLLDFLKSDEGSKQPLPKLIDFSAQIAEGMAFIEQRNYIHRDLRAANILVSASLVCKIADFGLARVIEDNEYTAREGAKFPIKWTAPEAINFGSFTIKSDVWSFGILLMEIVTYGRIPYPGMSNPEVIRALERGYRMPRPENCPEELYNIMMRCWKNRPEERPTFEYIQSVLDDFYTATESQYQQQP
# Jak2 = Jak2 (UniProt O60674); experiment: as above
# Sequence of Jak2 (O60674 whole entry, looked up): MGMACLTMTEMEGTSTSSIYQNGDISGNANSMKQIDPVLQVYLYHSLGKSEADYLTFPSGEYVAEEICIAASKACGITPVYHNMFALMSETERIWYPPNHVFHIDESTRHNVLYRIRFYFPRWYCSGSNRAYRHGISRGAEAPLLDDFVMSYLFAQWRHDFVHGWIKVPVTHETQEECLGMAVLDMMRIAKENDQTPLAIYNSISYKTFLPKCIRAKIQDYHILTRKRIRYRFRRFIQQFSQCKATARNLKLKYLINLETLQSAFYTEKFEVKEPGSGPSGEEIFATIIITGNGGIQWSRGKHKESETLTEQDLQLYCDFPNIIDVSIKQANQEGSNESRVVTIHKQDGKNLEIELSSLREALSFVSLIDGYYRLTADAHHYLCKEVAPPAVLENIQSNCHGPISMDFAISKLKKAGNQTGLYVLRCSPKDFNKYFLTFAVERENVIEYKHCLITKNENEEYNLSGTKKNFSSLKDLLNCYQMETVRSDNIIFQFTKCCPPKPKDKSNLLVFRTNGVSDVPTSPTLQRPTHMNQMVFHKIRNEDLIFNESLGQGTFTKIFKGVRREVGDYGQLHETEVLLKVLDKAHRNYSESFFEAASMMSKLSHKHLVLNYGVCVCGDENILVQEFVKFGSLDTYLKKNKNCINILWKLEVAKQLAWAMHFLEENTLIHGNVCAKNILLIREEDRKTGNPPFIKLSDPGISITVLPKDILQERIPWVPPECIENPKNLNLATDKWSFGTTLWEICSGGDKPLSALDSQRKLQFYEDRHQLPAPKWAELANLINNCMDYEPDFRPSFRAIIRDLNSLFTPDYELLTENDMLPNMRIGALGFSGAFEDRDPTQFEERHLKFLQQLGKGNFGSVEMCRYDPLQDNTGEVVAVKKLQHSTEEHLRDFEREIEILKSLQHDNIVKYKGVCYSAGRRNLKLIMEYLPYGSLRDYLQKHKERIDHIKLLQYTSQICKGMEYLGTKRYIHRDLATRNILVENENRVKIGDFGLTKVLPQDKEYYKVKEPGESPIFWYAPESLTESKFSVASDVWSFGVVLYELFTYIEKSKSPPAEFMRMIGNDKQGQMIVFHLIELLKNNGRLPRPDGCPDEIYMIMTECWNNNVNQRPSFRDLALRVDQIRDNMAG
# MERTK = MERTK (UniProt Q12866); experiment: as above
# c-Abl (mouse) = experiment: as above
# c-Src = experiment: as above
# Grb2 SH2 = Grb2 SH2 (UniProt P62993); experiment: SH2 binding enrichment of the phosphorylated peptide, bacterial display (enrichment ratio); higher = better substrate or ligand; peptides without Tyr show the background
# Sequence of Grb2 SH2 (P62993 whole entry, looked up): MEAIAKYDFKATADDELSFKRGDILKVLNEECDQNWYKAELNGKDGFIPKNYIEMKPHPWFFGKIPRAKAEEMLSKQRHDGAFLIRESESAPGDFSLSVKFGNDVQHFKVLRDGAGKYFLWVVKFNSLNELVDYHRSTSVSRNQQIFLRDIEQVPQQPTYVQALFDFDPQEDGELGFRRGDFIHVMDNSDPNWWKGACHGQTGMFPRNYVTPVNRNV
# SHP2-C SH2 = experiment: as above
# c-Src SH2 = experiment: as above
# 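Throughout, for SH2 binding enrichment of the phosphorylated peptide, bacterial display: peptide library displayed on the E. coli surface as eCPX fusions, selected cells deep-sequenced, score is each peptide's frequency after selection divided by its frequency in the input.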
# 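Throughout, for phosphorylation enrichment, bacterial display: 11-residue human phosphosite peptides and single-mutation variants displayed on the E. coli surface, counted by deep sequencing, each peptide's frequency after selection divided by its frequency in the unselected input library; frequency after pTyr selection over input frequency; kinase dosed for 20-30% of maximal phosphorylation in three min.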
# Sequence of EPHB2 (P29323 whole entry, looked up): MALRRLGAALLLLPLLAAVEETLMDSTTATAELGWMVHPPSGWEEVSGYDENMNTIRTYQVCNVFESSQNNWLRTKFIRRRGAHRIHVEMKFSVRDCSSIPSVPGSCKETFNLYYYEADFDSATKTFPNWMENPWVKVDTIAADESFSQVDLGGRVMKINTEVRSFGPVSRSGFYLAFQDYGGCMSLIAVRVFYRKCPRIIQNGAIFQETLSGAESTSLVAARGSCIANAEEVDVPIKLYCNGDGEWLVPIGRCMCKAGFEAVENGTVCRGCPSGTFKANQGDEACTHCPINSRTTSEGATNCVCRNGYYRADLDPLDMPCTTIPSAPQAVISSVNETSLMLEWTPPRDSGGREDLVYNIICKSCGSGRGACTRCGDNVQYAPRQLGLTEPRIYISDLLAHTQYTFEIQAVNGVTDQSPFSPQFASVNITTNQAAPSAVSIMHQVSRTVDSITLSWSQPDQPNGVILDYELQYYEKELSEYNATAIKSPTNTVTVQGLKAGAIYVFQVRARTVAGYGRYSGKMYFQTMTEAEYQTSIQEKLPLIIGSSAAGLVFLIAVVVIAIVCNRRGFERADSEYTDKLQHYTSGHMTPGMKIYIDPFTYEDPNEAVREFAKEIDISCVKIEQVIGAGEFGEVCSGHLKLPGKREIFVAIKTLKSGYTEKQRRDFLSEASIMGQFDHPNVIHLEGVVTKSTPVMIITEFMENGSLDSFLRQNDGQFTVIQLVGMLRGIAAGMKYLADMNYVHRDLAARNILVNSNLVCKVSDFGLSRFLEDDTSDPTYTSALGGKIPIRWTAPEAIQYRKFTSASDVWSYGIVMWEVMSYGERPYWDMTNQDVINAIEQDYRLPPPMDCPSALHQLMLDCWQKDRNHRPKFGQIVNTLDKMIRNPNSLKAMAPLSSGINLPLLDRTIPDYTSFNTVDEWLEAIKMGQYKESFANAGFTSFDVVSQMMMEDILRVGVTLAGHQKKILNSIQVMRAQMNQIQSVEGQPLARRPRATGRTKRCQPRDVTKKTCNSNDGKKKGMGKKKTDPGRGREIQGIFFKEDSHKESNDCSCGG
Sequence,phosphorylation enrichment (AncSZ),phosphorylation enrichment (EPHB1),phosphorylation enrichment (EPHB2),phosphorylation enrichment (FGFR1),phosphorylation enrichment (FGFR3),phosphorylation enrichment (Fer (mouse)),phosphorylation enrichment (Fes),phosphorylation enrichment (Fyn),phosphorylation enrichment (Hck),phosphorylation enrichment (Jak2),phosphorylation enrichment (MERTK),phosphorylation enrichment (c-Abl (mouse)),phosphorylation enrichment (c-Src),SH2 binding enrichment (Grb2 SH2),SH2 binding enrichment (SHP2-C SH2),SH2 binding enrichment (c-Src SH2)
RAIGFYSATSK [FAM120A_Y328_YF],1.51,0.46,0.81,0.545,0.805,0.911,1.03,0.685,0.774,0.889,1.03,1.26,0.59,0.989,0.95,0.886
NPETCYQRLKK [TK2_Y190],1.03,0.527,0.603,0.481,0.545,0.432,1.03,0.412,0.736,0.966,0.469,0.839,0.483,0.787,0.739,0.692
HSREDYFECFQ [ZIM2_Y411_Q408R],2.12,1.83,1.19,9.83,6.79,0.811,1.64,0.598,0.907,1.58,0.721,1.28,0.91,0.786,0.766,0.557
SPRDTYSDRIG [CTPS1_Y567_S571I],0.445,0.516,0.5,0.379,0.494,0.358,0.605,0.453,0.471,0.374,0.416,0.411,0.406,0.844,0.617,0.438
EATKGYPDDPT [G6PD_Y322_L323P],0.901,0.501,0.673,0.465,0.609,0.483,1.05,0.479,0.508,1.07,0.515,0.786,0.493,0.765,0.538,0.485
PPGRSYSPYDY [TNS1_Y793],1.44,1.12,1.07,0.863,0.855,1.11,1.38,2.82,1.65,1.07,0.653,0.664,3.42,0.502,1.52,3.08
ASFSLYEPAKM [MKI67_Y340_P338S],1.27,6.24,5.28,0.518,0.563,9.33,1.28,1.27,3.48,0.954,0.769,0.825,1.25,1,0.793,0.613
KYRREYILSLE [GPC3_Y299_W296R],0.754,0.364,0.465,0.427,0.491,0.534,0.698,0.468,0.49,0.628,0.576,0.511,0.613,0.774,0.606,0.374
IYETDYYQKGG [INSR_Y1189_R1191Q],1.88,1.2,0.948,1.52,1.46,1.6,1.08,1.46,1.37,0.819,4.71,0.629,1.37,0.915,0.442,0.773
TLNHQYDYTFH [CSNK1A1_Y292_D297H],0.998,0.772,0.873,2.69,1.38,1.4,0.753,0.536,0.596,0.654,1.11,0.512,1.16,1.01,0.874,7.34
RGDSAYHSQRH [ERBB3_Y1132],0.51,0.534,0.469,0.401,0.427,0.569,0.731,0.455,0.305,0.288,0.357,0.453,0.462,1.11,0.65,0.819
SHNELYYEEAE [VANGL1_Y344],1.5,0.736,0.733,1.05,1.15,1.03,1.27,0.544,0.626,1.37,0.58,0.896,0.578,1.05,0.931,0.799
DHKRQYELLKL [KIF4B_Y684_R680H],0.472,0.448,0.429,0.342,0.52,0.505,0.697,0.395,0.415,0.514,0.367,0.511,0.411,0.79,0.76,2.31
EWQQTYTFDSG [JUP_Y20_YF],1.06,0.494,0.485,0.965,1.02,0.425,0.904,3.03,0.78,1.02,0.668,0.546,5.44,0.881,0.799,0.677
LVSCTYQLARR [FGFR2_Y608_G613R],1.57,0.816,1.28,0.788,0.793,0.896,1.33,0.699,0.891,1.36,0.861,0.721,0.438,0.851,0.484,0.401
KDQGGYAMHQD [MAPT_Y29_T30A],0.677,0.406,0.476,0.329,0.574,0.419,0.798,0.392,0.471,0.528,0.426,0.557,0.487,0.805,0.399,0.485
RDVEQYVNNVN [PCDH19_Y1097_L1094V],0.928,0.545,0.594,0.544,0.701,0.454,0.93,0.577,0.645,0.855,0.522,1.02,0.398,2.37,0.541,0.621
NKEAIYSGFIR [SMCHD1_Y283_YF],0.78,5.18,7.14,0.59,0.557,5.17,1.01,14.5,13.1,0.711,12.7,33.6,9.78,0.713,0.636,0.392
CRPPYYHRNCM [HGD_Y334_F329C],0.837,0.436,0.556,0.617,0.628,0.458,0.856,0.565,0.761,0.992,0.515,0.743,0.452,1.78,1.25,1.65
CTTIHYNHMCN [TP53_Y234_Y236H],0.692,0.445,0.456,0.432,0.506,0.369,0.796,0.455,0.414,0.688,0.476,0.574,0.422,1.22,1.24,1.7
NKYTTYLPWLP [C9orf24_Y126_R129W],1.08,6.9,12.8,2.77,2.25,9.65,0.944,6.75,8.09,2.34,3.37,1.94,4.72,1.14,1.01,0.739
LKVKAYRFSIS [LCT_Y974],0.911,0.672,0.498,0.9,0.835,0.52,1.22,0.648,0.6,1.3,0.493,0.824,0.463,1.25,0.641,0.713
KRAIGYFSATS [FAM120A_Y327_YF],0.543,0.345,0.426,0.381,0.467,0.327,0.612,0.382,0.492,0.612,0.362,0.362,0.364,1.02,0.851,0.553
RISGVYKLPPD [ANGPTL7_Y145],0.9,0.511,0.586,0.623,0.801,0.5,0.852,1,0.572,0.785,0.719,0.838,0.827,1.02,0.857,0.525
CTIIHYNYMCN [TP53_Y234_T231I],0.963,0.723,0.694,0.583,0.798,0.633,1,0.588,0.521,0.829,0.419,0.534,0.452,1.76,1.76,2.11
CKQGKYLNWDA [ATM_Y54_S49C],0.921,0.552,0.494,0.447,0.632,0.397,0.839,0.418,0.423,0.782,0.39,0.605,0.366,5.58,1.24,0.735
IGSQRYKLGVR [RB1_Y446],0.447,0.336,0.332,0.369,0.364,0.322,0.426,0.332,0.31,0.436,0.306,0.41,0.356,1.16,1.4,0.798
AVRYIYTIDGS [DCX_Y105_G100A],0.948,0.65,0.552,0.579,0.709,0.439,1.2,3.86,1.41,0.972,0.629,0.727,3.18,0.979,20.1,0.76
GHPYAYDWISI [BEST1_Y227_L224P],1.47,1.65,1.07,10.1,6.75,17.5,2.26,0.929,1.62,0.794,8.66,0.661,1.55,1.1,1.07,4.11
